According to article PMC3264624:

Experiments:
Assay in all cases: FRET or BRET; FLIM-FRET, Cerulean (donor) and mOrange (acceptor) fusions co-expressed in N. benthamiana leaves, two days post infiltration; Cerulean fluorescence lifetime, multiphoton excitation at 810 nm
[1] = molecular target: NFR1:Cerulean (Lotus japonicus) (UniProt Q70KR8)
[2] = molecular target: LjSYMREM1:mOrange (full length) (Lotus japonicus)
[3] = molecular target: LjSYMREM1C:mOrange (Lotus japonicus)

UniProt Q70KR8, sequence (Q70KR8 entry or part of it): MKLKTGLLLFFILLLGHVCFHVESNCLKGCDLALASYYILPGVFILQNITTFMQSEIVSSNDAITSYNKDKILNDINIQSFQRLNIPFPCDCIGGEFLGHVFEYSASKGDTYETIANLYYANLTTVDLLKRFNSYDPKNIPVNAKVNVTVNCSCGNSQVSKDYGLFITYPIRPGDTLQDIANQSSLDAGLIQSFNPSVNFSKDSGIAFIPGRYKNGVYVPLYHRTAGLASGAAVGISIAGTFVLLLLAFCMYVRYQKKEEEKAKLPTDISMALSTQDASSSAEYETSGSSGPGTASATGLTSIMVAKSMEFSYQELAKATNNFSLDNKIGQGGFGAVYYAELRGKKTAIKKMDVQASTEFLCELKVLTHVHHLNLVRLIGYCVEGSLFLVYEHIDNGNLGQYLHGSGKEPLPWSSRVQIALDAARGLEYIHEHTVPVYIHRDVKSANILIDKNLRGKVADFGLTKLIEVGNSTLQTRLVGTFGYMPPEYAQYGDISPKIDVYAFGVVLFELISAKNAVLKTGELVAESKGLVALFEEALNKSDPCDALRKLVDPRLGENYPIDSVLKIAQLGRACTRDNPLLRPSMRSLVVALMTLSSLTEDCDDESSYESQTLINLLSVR

LjSYMREM1N:mOrange (domain or fragment)
Cerulean fluorescence lifetime [1]: 2.09 ns | FRET efficiency [1]: 4.1%

NFR1:Cerulean (from UniProt Q70KR8 1-621) (receptor)
Cerulean fluorescence lifetime [2]: 1.99 ns | FRET efficiency [2]: 8.8% | Cerulean fluorescence lifetime [3]: 1.97 ns | FRET efficiency [3]: 9.6%
